Source: patent US20150355179A1, “CDKACT BIOSENSORS-FLUORESCENT POLYPEPTIDE TO PROBE THE ACTIVITY OF CDK/CYCLIN KINASES IN VITRO, IN CELLULO AND IN VIVO” (CENTRE NATIONAL DE LA RECHERCHE SCIENTIFIQUE (CNRS), priority 2012, published 2015)

Assays:
CDK1/Cyclin B = target: T1, CDK1/Cyclin B (Homo sapiens, UniProt P06493); assay: Real-time fluorescence kinase assay with recombinant CDK1/Cyclin B; assay type: biochemical
T1 construct: made in house; host or cells: E. coli
Method: (§1) Fluorescence kinase assays were performed in 96-well plates in a thermostated chamber (Polarstar BMG) at 30° C. in 200 ul phosphate buffer saline, pH 7.2, 150 mM NaCl, in the presence of 5 mM MgCl2, 0.5 mM ATP, except when stated otherwise. The fluorescence of Cy3-labelled CDKACTH1 with recombinant CDK/Cyclin complexes or with cell extracts was monitored over time. Changes in Cy3 fluorescence emission were recorded at 590 nm following excitation at 544 nm. In all experiments, the fluorescence of CDKACTH1-Cy3 alone was substracted from all other values. Data analysis and curve fitting were performed using the GraFit Software (Erathicus Ltd).
(§2) To address the issue of specificity, we asked whether other kinases could phosphorylate and thereby affect the fluorescence of CDKACTH1. We first examined CDK1/Cyclin B and CDK4/Cyclin D (FIGS. 3A and B).

[1] = Solubility of the biosensor after removal of the GST tag; assay type: physicochemical
Method: The […]1 biosensor was engineered by cloning residues 367-603 of PBD from Plk1 into the pGex6[…]. […]1 was expressed in E. coli, then purified on High performance glutathione Sepharose in 50 mM TrisHCl, pH 7.4, 150 mM NaCl, then further purified by Gel Filtration chromatography. […] Following purification, […]1 was labelled with a 10fold molar excess Cy3-maleimide and further purified on NAPS columns to remove excess label.

Plk3 = Plk3 (Homo sapiens, UniProt Q9H4B4); assay: Real-time fluorescence kinase assay with Plk3 kinase (specificity); assay type: biochemical; details: 25 nM CDKACTH1, 25, 50, 75 nM Plk3
Chain of Plk3 (Q9H4B4 whole entry, species assumed): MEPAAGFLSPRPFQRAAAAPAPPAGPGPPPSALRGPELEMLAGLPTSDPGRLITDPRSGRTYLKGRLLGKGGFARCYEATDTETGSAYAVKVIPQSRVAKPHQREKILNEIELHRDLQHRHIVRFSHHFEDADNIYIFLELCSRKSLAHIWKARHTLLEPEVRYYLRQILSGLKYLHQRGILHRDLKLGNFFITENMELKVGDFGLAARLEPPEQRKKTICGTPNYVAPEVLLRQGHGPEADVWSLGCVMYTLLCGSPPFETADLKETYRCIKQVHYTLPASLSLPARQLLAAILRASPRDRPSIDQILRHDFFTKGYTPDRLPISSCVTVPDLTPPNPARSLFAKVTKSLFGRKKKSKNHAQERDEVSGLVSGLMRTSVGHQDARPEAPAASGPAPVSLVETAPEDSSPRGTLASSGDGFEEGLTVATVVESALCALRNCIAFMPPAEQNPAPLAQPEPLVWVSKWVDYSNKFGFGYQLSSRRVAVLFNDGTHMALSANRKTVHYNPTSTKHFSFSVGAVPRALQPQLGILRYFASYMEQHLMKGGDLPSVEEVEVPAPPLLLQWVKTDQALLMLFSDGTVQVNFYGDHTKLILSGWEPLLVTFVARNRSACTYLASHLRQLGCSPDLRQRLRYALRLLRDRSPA
Method: as §1, §2

Plk1 = Plk1 (Homo sapiens, UniProt P53350); assay: Real-time fluorescence kinase assay with Plk1 kinase (specificity); assay type: biochemical; details: 25 nM CDKACTH1, 25, 50, 75 nM Plk1
Chain of Plk1 (P53350 whole entry): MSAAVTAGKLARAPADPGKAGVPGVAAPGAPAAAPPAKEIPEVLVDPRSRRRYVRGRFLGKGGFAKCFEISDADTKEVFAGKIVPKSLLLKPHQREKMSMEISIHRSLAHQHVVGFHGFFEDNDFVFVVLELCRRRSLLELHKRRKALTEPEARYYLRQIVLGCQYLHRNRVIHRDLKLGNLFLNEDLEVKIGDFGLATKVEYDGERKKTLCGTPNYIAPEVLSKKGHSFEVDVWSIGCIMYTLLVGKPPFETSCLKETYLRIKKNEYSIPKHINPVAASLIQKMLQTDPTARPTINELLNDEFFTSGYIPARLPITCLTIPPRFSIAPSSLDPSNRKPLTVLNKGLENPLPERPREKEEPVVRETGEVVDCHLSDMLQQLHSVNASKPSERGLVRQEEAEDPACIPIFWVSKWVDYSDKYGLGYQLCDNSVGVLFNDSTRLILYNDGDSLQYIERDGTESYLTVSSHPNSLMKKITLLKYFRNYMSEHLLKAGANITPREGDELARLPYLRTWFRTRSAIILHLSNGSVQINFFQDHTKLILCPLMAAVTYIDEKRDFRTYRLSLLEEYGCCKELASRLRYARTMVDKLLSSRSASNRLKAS
Method: as §1, §2

CDK4/Cyclin D = target: T2, CDK4/Cyclin D (Homo sapiens, UniProt P11802); assay: Real-time fluorescence kinase assay with recombinant CDK4/Cyclin D; assay type: biochemical; details: dependent on MgCl2/ATP
T2 construct: made in house; host or cells: E. coli
T2 sequence (P11802 whole entry, species assumed): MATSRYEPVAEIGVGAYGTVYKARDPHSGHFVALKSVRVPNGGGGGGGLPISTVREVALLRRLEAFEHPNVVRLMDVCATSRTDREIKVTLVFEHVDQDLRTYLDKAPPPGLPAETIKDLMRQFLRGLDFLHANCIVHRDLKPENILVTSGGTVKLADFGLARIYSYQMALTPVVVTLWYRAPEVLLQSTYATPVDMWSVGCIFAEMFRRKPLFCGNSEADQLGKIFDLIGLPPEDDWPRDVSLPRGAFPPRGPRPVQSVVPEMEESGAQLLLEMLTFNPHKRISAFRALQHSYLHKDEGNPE
T2 sequence (P24385 whole entry partner, species assumed): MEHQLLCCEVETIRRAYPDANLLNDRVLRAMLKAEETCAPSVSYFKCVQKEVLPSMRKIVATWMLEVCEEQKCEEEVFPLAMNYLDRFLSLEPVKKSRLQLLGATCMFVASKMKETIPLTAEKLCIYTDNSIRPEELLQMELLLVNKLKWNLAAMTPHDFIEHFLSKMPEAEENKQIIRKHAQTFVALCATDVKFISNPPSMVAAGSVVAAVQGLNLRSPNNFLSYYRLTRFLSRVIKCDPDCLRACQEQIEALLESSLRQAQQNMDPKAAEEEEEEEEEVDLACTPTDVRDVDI
Method: as §1, §2

GST-CDK2/Cyclin A = target: T3, GST-CDK2/Cyclin A (Homo sapiens, UniProt P24941); assay: Radioactive endpoint kinase assay with GST-CDK2/Cyclin A; assay type: biochemical; details: radioactive gamma-ATP, 30 min at 30° C., histone H1 positive control
T3 construct: made in house; host or cells: E. coli
Method: In order to characterize […]1 biosensor in vitro, we first asked whether it could be used to monitor recombinant kinase activity in a real-time assay. […] A kinase assay was performed by addition of GST-CDK2/CIV complexed with His-Cyclin A to […]1, in the presence of 0.5 mM ATP and 5 mM MgCl2, and […]1 fluorescence was monitored over time. Phosphorylation of 5 uM […]1 or histone H1 were performed in 50 mM Tris pH 7.5, 5 mM MgCl2, 0.5 mM ATP, and 33P-gamma-ATP for 30 min at 30° C. The reaction was stopped by addition of Laemmli buffer, and samples were run on SDS-PAGE then exposed by autoradiography.

CDK2/Cyclin A = target: T4, CDK2/Cyclin A (Homo sapiens, UniProt P24941); assay: Real-time fluorescence kinase assay with recombinant active CDK2/Cyclin A; assay type: biochemical
T4 construct: made in house; host or cells: E. coli
Method: (§3) In order to characterize CDKACT-H1 biosensor in vitro, we first asked whether it could be used to monitor recombinant kinase activity in a real-time assay.
as §1, §3
In vitro characterization was performed as described in Example 2. […] Assays were performed at 30° C. for 1600s. Fluorescence emission of Cy5 was measured at 675 nm following excitation at 645 nm on Polarstar™ fluorimeter.
Assays were performed at 30° C. for 1600s. Fluorescence emission of Cy3 was measured at 590 nm following excitation at 544 nm on Polarstar™ fluorimeter.

GST-CDK1-Cyclin B = target: T5, GST-CDK1-Cyclin B (Homo sapiens, UniProt P06493); assay: Radioactive endpoint kinase assay with GST-CDK1-Cyclin B; assay type: biochemical; details: radioactive gamma-ATP, 30 min at 30° C., histone H1 positive control
T5 construct: made in house; host or cells: E. coli
T5 sequence (P06493 whole entry, species assumed): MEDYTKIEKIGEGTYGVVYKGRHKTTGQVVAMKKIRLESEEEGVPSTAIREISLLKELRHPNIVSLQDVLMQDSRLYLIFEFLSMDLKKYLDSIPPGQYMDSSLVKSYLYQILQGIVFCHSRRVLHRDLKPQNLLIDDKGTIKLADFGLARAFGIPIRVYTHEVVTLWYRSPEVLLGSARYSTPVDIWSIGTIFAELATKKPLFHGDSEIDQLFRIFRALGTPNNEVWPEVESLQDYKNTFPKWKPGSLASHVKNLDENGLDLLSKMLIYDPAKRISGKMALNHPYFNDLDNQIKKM
T5 sequence (P14635 whole entry partner, species assumed): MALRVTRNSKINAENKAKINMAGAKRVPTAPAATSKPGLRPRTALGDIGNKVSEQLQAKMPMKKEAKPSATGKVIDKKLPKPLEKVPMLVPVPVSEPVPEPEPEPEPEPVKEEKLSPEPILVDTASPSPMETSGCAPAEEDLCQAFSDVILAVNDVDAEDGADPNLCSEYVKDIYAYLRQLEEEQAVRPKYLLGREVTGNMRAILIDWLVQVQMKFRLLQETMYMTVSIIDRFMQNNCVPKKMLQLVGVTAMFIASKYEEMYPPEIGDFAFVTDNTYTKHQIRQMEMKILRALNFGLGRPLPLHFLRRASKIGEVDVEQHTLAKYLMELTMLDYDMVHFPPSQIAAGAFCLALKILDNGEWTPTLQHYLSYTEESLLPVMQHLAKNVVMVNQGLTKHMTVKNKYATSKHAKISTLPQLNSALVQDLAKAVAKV

T1 sequence (P06493 whole entry, species assumed): as the sequence (P06493 whole entry, species assumed) above
T1 sequence (P14635 whole entry partner, species assumed): as the sequence (P14635 whole entry partner, species assumed) above

B1: CDKACTH1 (protein)
chain: GEVVDSHLSDMLQQLHSVNASKPSERGLVRQEEAEDPASIPIFWVSKWVDYSDKYGLGYQLSDNSVGVLFNDSTRLILYNDGDSLQYIERDGTESYLTVSSHPNSLMKKITLLKYFRNYMSEHLLKAGANITPREGDELARLPYLRTWFRTRSAIILHLSNGSVQINFFQDHTKLILSPLMAAVTYIDEKRDFRTYRLSLLEEYGSSKELASRLRYARTMVDKLLSSRSASNRLKASPGAGGTGGLPGGGGCSTPKKAKKL
modifications: left off: a dimerising Fc or GST
For B1, the “phosphorylation of the biosensor by the kinase (fluorescence assay)” value (CDK1/Cyclin B) was “indeed phosphorylated”, the “sensor concentration giving the optimal response” value (CDK1/Cyclin B; for 50-100 nM CDK1/Cyclin B) was 10 nM and the “solubility upon removal of the GST tag” value [1] was “complete precipitation”. For the same molecule, the “change in CDKACTH1 fluorescence induced by the kinase” value (shortened to “change”) (Plk3) was “did not induce any significant changes”, the “change” value (Plk1) was “did not induce any significant changes” and the “change” value (CDK4/Cyclin D) was “reminiscent of CDK2/Cyclin A”. For the same molecule, the “phosphorylation of the biosensor in standard radioactive kinase assay” value (GST-CDK2/Cyclin A) was “is phosphorylated”, the “sensor concentration giving the best response” value (CDK2/Cyclin A; for 25-50 nM CDK2/CyclinA) was 25 nM and the “phosphorylation of the biosensor in standard radioactive kinase assay” value (GST-CDK1-Cyclin B) was “is phosphorylated”.

B2: unlabelled sensor: CDKACTH1 biosensor without fluorescent label, used as competitive substrate (protein)
chain: GEVVDSHLSDMLQQLHSVNASKPSERGLVRQEEAEDPASIPIFWVSKWVDYSDKYGLGYQLSDNSVGVLFNDSTRLILYNDGDSLQYIERDGTESYLTVSSHPNSLMKKITLLKYFRNYMSEHLLKAGANITPREGDELARLPYLRTWFRTRSAIILHLSNGSVQINFFQDHTKLILSPLMAAVTYIDEKRDFRTYRLSLLEEYGSSKELASRLRYARTMVDKLLSSRSASNRLKASPGAGGTGGLPGGGGCSTPKKAKKL
modifications: left off: a dimerising Fc or GST
For B2, the “competition assay: effect on phosphorylation of CDKACTH1” value (CDK2/Cyclin A; 25 nM CDKACTH1-Cy3, 25 nM CDK2/Cyclin A, 25 or 100 nM unlabelled CDKACTH1, 25 or 500 nM histone) was “prevented full phosphorylation”.
